According to the DeepSol protein solubility set:

Assay: soluble on expression in E. coli; label from the status in PepcDB or PDB records

Sequence | soluble on expression in E. coli
MTLLSPGIELKETTVQSTVVNNSTGTAALAGKFQWGPAFQIKQVTNEVDLVNTFGQPTAETADYFMSAMNFLQYGNDLRVVRAVDRDTAKNSSPIAGNIEYTISTPGSNYAVGDKITVKYVSDDIETEGKITEVDADGKIKKINIPTAKIIAKAKEVGEYPTLGSNWTAEISSSSSGLAAVITLGKIITDSGILLAEIENAEAAMTAVDFQANLKKYGIPGVVALYPGELGDKIEIEIVSKADYAKGASALLPIYPGGGTRASTAKAVFGYGPQTDSQYAIIVRRNDAIVQSVVLSTKRGGKDIYDSNIYIDDFFAKGGSEYIFATAQNWPEGFSGILTLSGGLSSNAEVTAGDLMEAWDFFADRESVDVQLFIAGSCAGESLETASTVQKHVVSIGDVRQDCLVLCSPPRETVVGIPVTRAVDNLVNWRTAAGSYTDNNFNISSTYAAIDGNYKYQYDKYNDVNRWVPLAADIAGLCARTDNVSQTWMSPAGYNRGQILNVIKLAIETP | soluble
LETLNNASKTIDLQGKISDVDGDTLSITLHGSARFSLNGTQVTFTPNGFVGLDQAVYSVEDGKGGYALANIVAISEDANPPVPNMAPTANDAQFTLDVAKNVTFNIDLVAQRLIADADGDALSIAHIYTANNRATKQGATGITYTPGAFRGVDQFTYVITDGKDGYAINAITVVVNDSTPANKIPTAGPVTAKMLHNDPAITISVNSAVSDADGDTLKIVSISGALGQASINPANALEMLYEPKGFVGTDRFVYVVSDDNGGYAMGEVTVTVTDSNPTAPVANTVQENTLLDTPINIDLSAYISDKETETANLVISNVTNATSPAVATLSGQTVIYTPNGFTGNDILTYTVTDGRHSTNGTIVISVNAHGAHAIQADNLEGGTEPNAPFIHDLSALISTTDPTAGELIVVNAIGGALGTATVTNNILTYTPKLGVFGKDRLIYTVKDSHNPAHYTQGTISI | not soluble
MKVIIDGEVRTLKAAWYEDGEVKLIDQRELPDKIKIFSAKNSDDIAYAIKNMVVRGAPAIGVTAAYGLAMASKNGEDMNKAKEKIRATRPTAYDLFKAIRYMEVNGYDMNAARRYAMEIEGRSKKIGELGNELIRNGAKILTHCNAGALAVLDWGTALSPMRIAHNEGKNIFVFVDETRPRLQGAKLTAWELAQEGIDHAIIADNAAGFYMRRKEIDLVIVGADRIASNGDFANKIGTYEKAVLAKVNGIPFYVAAPGSTFDFSIRSGDEIPIEERDENEVLEINGIRIGPNESHSKNPAFDVTPNEYVTGFITEYGIFKPNELNKLKDLMDKDLFMNIK | not soluble
MQPQSVLHSGYLHPLLRAWQTATTTLNASNLIYPIFVTDVPDDIQPITSLPGVARYGVKRLEEMLRPLVEEGLRCVLIFGVPSRVPKDERGSAADSEESPAIEAIHLLRKTFPNLLVACDVCLCPYTSHGHCGLLSENGAFRAEESRQRLAEVALAYAKAGCQVVAPSDMMDGRVEAIKEALMAHGLGNRVSVMSYSAKFASCFYGPFRDAAKSSPAFGDRRCYQLPPGARGLALRAVDRDVREGADMLMVKPGMPYLDIVREVKDKHPDLPLAVYHVSGEFAMLWHGAQAGAFDLKAAVLEAMTAFRRAGADIIITYYTPQLLQWLKEE | soluble
MGSSHHHHHHSSGLVPRGSHMASMTGGQQMGRGSMTTHLQAKATLHNGVEMPWFGLGVFQVEEGSELVNAVKTAIVHGYRSIDTAAIYGNEAGVGEGIREGIEEAGISREDLFITSKVWNADLGYEETLAAFETSLSKLGLDYLDLYLIHWPVEGKYKEAWRALETLYKEGRIKAIGVSNFQIHHLEDLMTAAEIKPMINQVEFHPRLTQKELIRYCQNQGIQMEAWSPLMQGQLLDHPVLADIAQTYNKSVAQIILRWDLQHGIITIPKSTKEHRIKENASVFDFELTQDDMNRIDALNENLRVGPDPDNFDF | soluble
MISKHSSRLPIWVLSPREEQQARKNLKTETYKKCANFVQAMADCAKANGMKVFPTCDKQRDEMKSCLLFYQTDEKYLDGERDKIVLEKINKLEKLCQKQSSTK | not soluble
MSRNHFNELSPCEALIMKLIWEAPQDIPVQELIDQLRDDYGKEYARTTVVTFVGKLKDKRFVDTYRKGKSAFIHPLRSEEEYRRQLLKEEADFWFNGKAVDMVASICESQKLEDDEIKRIKKILNGLNK | not soluble
MIRFCLQCLKTKKACICEWITPITTDIELIILQHPTEAKRPLGTAKILSLSLVNCRTFIGENFSEHSELNQLLADDSYHHQVLFLDNESKAIGTDKALLQKKQRVILLDGTWKKAYKMWQLSTNLHSLPKVHLNTDLSGNYRVRKAPKDNALSTAEAGYHILTQLDNDCVASNNVEKFDSILTAFDNMIEFHISQMPEGVFEKNYRSLEHHHHHH | soluble
MGSDKIHHHHHHMTRTIVIDPVTRIEGHAKISVFLDDQGNAEAARFHVVEYRGFEKFCEGRPFTEMAGITARICGICPVSHLLAAAKTGDKILAVQIPPAAENLRRLINLAQIIQSHALSFFHLSSPDFLLGWDSDPARRNLFGLIAADPETARAGIRLRQFGQQLIEWLGGRKIHAAWAVPGGVRSLLSQEGMVWIRDRLPAELATVRATLDRFKRLLDREFREETAVFGDFPSLFMGLVADNGDWEHYGGHLRFVDSQGRIIADRLREDDYASFLGEAVEPWSYLKFPYYKPWGYPEGMYRVGPLARLNVCDRIGTAGAEAERQELRDRAGGTVTSSFLYHYARLVEILASLEKIAEMVEDPNLQTGFLRSQAGVNCLEAIGVSEAPRGTLFHHYRVDSHGKIERVNLIIATGQNNLAMNRTVTQIAQHYIRHGEVQESFLNRVEAGIRCFDPCLSCSTHTAGQMPLKIEIFDSRGELYQCLCRDL | not soluble
MEMKQISETTLKITISMDDLEERGMELKDFLIPQEKTEEFFYSVMDELDLPDNFKDSGMLSFRVTPRKDRLDVFVTKSEINKDINLEDLAEFGDMSQMTPEDFFKSLEQSMREKGDVKAHEKLEKIEEIMEDVVEATLANQSEAADPSTNHESEPLDYVHYVLDFSTITEAVAFAKTIDFSIEASELYKGSNCYHMTILLDVQQQPSYFANVMYARLIEHANPGSKTRAYLQEHGLQLMLDGAVEQLQKIELG | not soluble
MAQVPPPMTQVVTSAPPPTAAATVVAGAVAGQPQAVIQQGPPPTNIGYPPNATYSMASLYIGDLHPDVSEAMLFEKFSMAGPVLSIRVCRDNTSRLSLGYAYVNFQQPADAERALDTMNFEVIHGRPMRIMWSQRDPAARRAGNGNIFIKNLDRVIDNKSVYDTFSLFGNILSCKVATDDEGNSKGYGFVHFETEHSAQTAIEKVNGMLLSDKKVYVGKFQPRAQRMKELGESGLKYTNVFVKNFGEHLDQEKLSAMFSKFGEITSAVVMTDAQGKPKGFGFVAFADQDAAGQAVEKLNDSILEGTDCKLSVCRAQKKSERSAELKRKYEALKQERVQRYQGVNLYVKNIEEDLNDDGLRDHFSSFGTITSAKVMVDENGRSKGFGFVCFEKPEEATAAVTDMNSKMIGAKPLYVALAQRKEDRRAQLASQYMQRLATLRMGQQASGVPAMTQLYQPGQQGYFVPNPMNAQGRPGFQPQSAQIRGPPGQRVFQNQMFMQYPFNQRQVYPQQQGRPPMRTNDGRPQYGMAPRPAGAPRVGGPGVQMGGAPIRQQGPAPRGAPQKPFYQGPPRQQQPQQHSQQPAQQPGQQGQGQSGIVIHGQETLTSHMLAQAAPQEQKQLLGERIYALIEKMFPNHKEAGKITGMMLEIDNAELIMMLQDAELFRSKVEEAFGVLTNAQSAAASTSAPTAKN | not soluble
MLNILDIITDWIKEILRDCIMGNLDGMFDQINNEVGEVAANVGTTPAAWNAGVFSMIRNLSDT | not soluble
MMSAPKITFIGAGSTIFVKNILGDVFHREALKTAHIALMDIDPTRLEESHIVVRKLMDSAGASGKITCHTQQKEALEDADFVVVAFQIGGYEPCTVTDFEVCKRHGLEQTIADTLGPGGIMRALRTIPHLWQICENMTEVCPDATMLNYVNPMAMNTWAMYARYPYIKQVGLCHSVQGTAEELARDLNIDPATLRYRCAGINHMAFYLELERKTADGSYVNLYPELLAAYEAGQAPKPNIHGNTRCQNIVRYEMFKKLGYFVTESSEHFAEYTPWFIKLGREDLIERYKVPLDEYPKRCVEQLANWHKELEEYKNASRIDIKPSREYASTIMNAIWTGEPSVIYGNVRNDGLIDNLPQGCCVEVACLVDANGIQPTKVGTLPSHLAALMQTNINVQTLLTEAILTENRDRVYHAAMMDPHTAAVLGIDEIYALVDDLIAAHGDWLPSWLHR | not soluble
GMTYKDYTGLDRTELLSKVRHMMSDKRFNHVLGVERAAIELAERYGYDKEKAGLAALLHDYAKELSDDEFLRLIDKYQPDPDLKKWGNNIWHGLVGIYKIQEDLAIKDQDILAAIAKHTVGSAQMSTLDKIVYVADYIEHNRDFPGVEEARELAKVDLNKAVAYETARTVAFLASKAQPIYPKTIETYNAYIPYLD | soluble
SLFGYHDVEDFQAEIGEYKIKTERIGPFYSYVRENGERKEKNLSVETGRIIVNPVEPVNLPKEITNFLQIKFSKPFLAEPKSAVEVYATFPVEIAVFIAAKKNVGLVDVFSLQKPKYTLYGNPRAGIICRYWESELYSEIPQVDKYREGVIKLRIVNSDDEWVEVSNAVFDVYGMKIYYNEEMVCSSASVNIVSPKVAETRFIEQPLREKMKKALELYTARRIAVTSLKFVMEWGL | not soluble
GACDNDTEPGGTAVEKMAGDWWVTVNAFIDGKEVEDPFGAGHLQMSTYNTASNSETEMWLDDLGNFWEYKLKVNVNYAARTFSTTGFVDNVTYESKVKITDGKVLEKAATTPSGMPADSIVYMVQFDDDEDGLTYKVSGFRRTGFPADDF | soluble
TGALMASSPQDIKFQDLVVFILEKKMGTTRRALLMELARRKGFRVENELSDSVTHIVAENNSGSDVLEWLQAQKVQVSSQPELLDVSWLIECIGAGKPVEMTGKHQL | soluble
MSLKISDGNWLIQPGLNLIHPLQVFEVEQQDNEMVVYAAPRDVRERTWQLDTPLFTLRFFSPQEGIVGVRIEHFQGALNNGPHYPLNILQDVKVTIENTERYAEFKSGNLSARVSKGEFWSLDFLRNGERITGSQVKNNGYVQDTNNQRNYMFERLDLGVGETVYGLGERFTALVRNGQTVETWNRDGGTSTEQAYKNIPFYMTNRGYGVLVNHPQCVSFEVGSEKVSKVQFSVESEYLEYFVIDGPTPKAVLDRYTRFTGRPALPPAWSFGLWLTTSFTTNYDEATVNSFIDGMAERNLPLHVFHFDCFWMKAFQWCDFEWDPLTFPDPEGMIRRLKAKGLKICVWINPYIGQKSPVFKELQEKGYLLKRPDGSLWQWDKWQPGLAIYDFTNPDACKWYADKLKGLVAMGVDCFKTDFGERIPTDVQWFDGSDPQKMHNHYAYIYNELVWNVLKDTVGEEEAVLFARSASVGAQKFPVHWGGDCYANYESMAESLRGGLSIGLSGFGFWSHDIGGFENTAPAHVYKRWCAFGLLSSHSRLHGSKSYRVPWAYDDESCDVVRFFTQLKCRMMPYLYREAARANARGTPMMRAMMMEFPDDPACDYLDRQYMLGDNVMVAPVFTEAGDVQFYLPEGRWTHLWHNDELDGSRWHKQQHGFLSLPVYVRDNTLLALGNNDQRPNYVWHEGTAFHLFNLQDGHEAVCEVPAADGSVIFTLKAARTGNTITVTGAGEAKNWTLCLRNVVKVNGLQDGSQAESEQGLVVKPQGNALTITLEGGSHHHHHH | soluble
MGSDKIHHHHHHMNRLKKLAWGELFMLGKQGKVRYVFTSSNTAGGYCSFMPELLAGLQKIFILKGPAGTGKSSFLRLLGQSMAEQGYEVEVWLSALNPLNPEGIYLPQMEAAVVNGSLPITIDPGYPAGRAEIINLEDYRDRKAAAEKGRDILELVQRVEKHHSKAYNILKSVIQTREELRQLSARHLDNSKFNQIFQELEARLAEEEVRERHYFANAVTADGIISYIEELSTPCRKRYIFKGPEGCGKSTMIAELARKAAEKGQFLEYYHSGLEPERLLMVIISSSQTALIDIGEMEINLKPCDLLVDLGKCLSDYDCSLLGMKNSQVYRNHEAMLLQVQDELENACLAVKKIKKINASFMDYDSIDKKRMEIEQELGSELSKCFCNGIESGL | not soluble
